Literature values, collected in patent US9040062B2, “Preparation for treatment of spinal cord injury” (SUMITOMO DAINIPPON PHARMA CO., LTD., priority 2010, dated 2015).

Tested on: cultural neuron
Conditions: short time

B1: semaphorin 3A: endogenous protein that retracts the nerve growth cone and suppresses axonal growth (protein, UniProt Q14563 21-771, looked up)
Semaphorin-3A: NYQNGKNNVPRLKLSYKEMLESNNVITFNGLANSSSYHTFLLDEERSRLYVGAKDHIFSFDLVNIKDFQKIVWPVSYTRRDECKWAGKDILKECANFIKVLKAYNQTHLYACGTGAFHPICTYIEIGHHPEDNIFKLENSHFENGRGKSPYDPKLLTASLLIDGELYSGTAADFMGRDFAIFRTLGHHHPIRTEQHDSRWLNDPKFISAHLISESDNPEDDKVYFFFRENAIDGEHSGKATHARIGQICKNDFGGHRSLVNKWTTFLKARLICSVPGPNGIDTHFDELQDVFLMNFKDPKNPVVYGVFTTSSNIFKGSAVCMYSMSDVRRVFLGPYAHRDGPNYQWVPYQGRVPYPRPGTCPSKTFGGFDSTKDLPDDVITFARSHPAMYNPVFPMNNRPIVIKTDVNYQFTQIVVDRVDAEDGQYDVMFIGTDVGTVLKVVSIPKETWYDLEEVLLEEMTVFREPTAISAMELSTKQQQLYIGSTAGVAQLPLHRCDIYGKACAECCLARDPYCAWDGSACSRYFPTAKRRTRRQDIRNGDPLTHCSDLHHDNHHGHSPEERIIYGVENSSTFLECSPKSQRALVYWQFQRRNEERKEEIRVDDHIIRTDQGLLLRSLQQKDSGNYLCHAVEHGFIQTLLKVTLEVIDTEHLEELLHKDDDGDGSKTKEMSNSMTPSQKVWYRDFMQLINHPNLNTMDEFCEQVWKRDRKQRRQRPGHTPGNSNKWKHLQENKKGRNRRTHEFERAPRSV
concentration inducing growth cone retraction: 10 pM
